Measurements as given in patent US20100184651A1, “TARGETED FUSION PROTEINS FOR CANCER THERAPY” (Dabur Pharma Limited, priority 2005, published 2010).

How the values were obtained:
[1] = tested on: normal murine cell line, NIH3T3; test: MTT cytotoxicity assay, NIH3T3; assay type: cell-based, mouse; conditions: NIH3T3, 24 h treatment
Protocol: Subsequently, cytotoxicity of this protein was determined on cell lines over expressing the VIP receptor like colon carcinoma cell line, HT29 and non small cell lung carcinoma cell line, A549 and compared with a normal murine cell line, NIH3T3, by a quantitative MTT assay. […] Different sensitivities of the two cell lines may be attributed to the differential expression of the VPAC1 receptors and the inherent sensitivity of the cell lines.
Cells were seeded in 96-well microplates, followed by the addition of various concentrations of the fusion protein. After a 24-hour incubation, the MTT assay was performed according to the method of Mosmann [Mosmann T, J Immunol. Methods, 1983, 55-63]. Serial dilutions of chemotherapeutic agents prepared by the Multiplication method were placed in a 96-well microplate. Since the cell lines employed in the present study had different proliferation rates, the number of cultured cells was adjusted to a density that allowed the untreated control cells to grow exponentially. […] Then 200 μl of DMSO was added, and the absorbance was determined at a wavelength of 540 nm using an ELISA reader. Results were expressed as the percent survival of the control experiments in which the cells were not exposed to any protein. […]

[2] = target: T1, VPAC 1 receptors expressed on A549 cells (Homo sapiens, UniProt P32241); test: Immunocytochemical staining for cell surface receptors on A549 cells; assay type: binding
T1 construct: the receptors were overexpressed in the A549 cell line; endogenous in cells; host or cells: A549 human lung carcinoma cells (acetone-fixed on slides)
T1 sequence (P32241 31-457): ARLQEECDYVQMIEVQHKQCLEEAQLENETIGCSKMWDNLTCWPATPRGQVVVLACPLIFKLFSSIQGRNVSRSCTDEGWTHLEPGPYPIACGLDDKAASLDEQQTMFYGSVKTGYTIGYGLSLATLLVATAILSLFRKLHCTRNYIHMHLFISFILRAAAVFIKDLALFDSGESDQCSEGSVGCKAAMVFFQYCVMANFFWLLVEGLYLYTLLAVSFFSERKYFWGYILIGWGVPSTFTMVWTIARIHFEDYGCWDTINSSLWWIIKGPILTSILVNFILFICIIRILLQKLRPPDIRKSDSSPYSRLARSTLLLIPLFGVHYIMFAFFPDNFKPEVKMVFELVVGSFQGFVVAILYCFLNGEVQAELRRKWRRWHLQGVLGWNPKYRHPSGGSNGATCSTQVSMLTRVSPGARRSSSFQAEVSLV
Protocol: Similarly, when, the cells were treated with fusion protein and immuno-stained with anti-BID. […] A similar observation was made when A549 cells were pre-treated with VIP antagonist, VIP (10-28) followed by fusion protein and immunostaining with anti-BID (FIG. 15e).
Cultured (A549 human lung carcinoma) cells were detached with trypsin/EDTA and pelleted by low-speed centrifugation. The cells were resuspended in PBS. Cell suspensions were coated onto poly-L-lysine coated glass slides, dried and then fixed for 10 min in acetone at −20° C. After drying for 2 h, slides were rinsed in PBS and then treated for 5 min with water/H2O2 in order to block endogenous peroxidase. Slides were again rinsed again in PBS and treated with normal rabbit and goat serum to block background staining. Slides were then incubated with antagonist, VIP(10-28) and/or fusion protein for 1 hr each. Slides were again washed with PBS and incubated with rabbit-anti-BID antibody (dilution 1:1000) or goat anti-VPAC 1 antibody (dilution 1:1000) for 1 h. Slides were again washed in PBS and incubated with […] IgG peroxidase labelled antibodies for anti-BID and anti-VPAC 1 primary antibodies respectively, for 1 h followed by addition of the 3,3′-diaminobenzidine-tetrachloride (DAB) substrate and hydrogen peroxide in PBS. […]

[3] = target: T2, recombinant human cathepsin D (Homo sapiens, UniProt P07339); test: Cleavage at the linker site with recombinant human cathepsin D, followed by LC-MS; assay type: biochemical; conditions: cathepsin D at a ratio of ~400:1 (w/w), pH 3.5, 37° C.
T2 construct: purchased R&D Systems, Abingdon, UK
Protocol: To evaluate the role of the linker used we carried out an in vitro digestion of the protein with cathepsin D at a ratio of ˜400:1 (w/w) and followed the cleavage by mass spectrometry as a function of time (FIG. 16). The first cleavage occurred at the linker by around 30 minutes of treatment with the protease, giving two peptides of 3914.4 Da (FIGS. 17a) and 4477 Da (FIG. 17b), which corresponded to M (1-34) L (expected mass 3915.5 Da) and L (35-71) H (expected mass 4475 Da) peptides respectively although the majority of the protein was still intact (FIG. 17c), which justified our design of the protein. Subsequently, the protein was cleaved at other sites as mapped by mass spectrometry till 2 H of digestion (FIGS. 18a-e, 19).
LC/MS analyses were carried out using a Waters 2695 high-perfomance liquid chromatography (HPLC) system (Milford, USA) and Micromass Quattro Micro mass spectrometer (Micromass, UK) using a ZORBAX Eclipse XDB-C18 (4.6×150 mm, 5 μM) column. Mobile phase solvents were 0.1% HCOOH in Milli Q Water (A) and 0.1% HCOOH in Acetonitrile (B). Fusion protein was eluted using a linear gradient program: 0 min 100% A; 60 min 100% B; 60-75 min 100% A, at a constant flow rate of 1.2 mL min^−1, and a volume of 50 μl was directed to the detector of the mass spectrometer. […]

[4] = tested on: A549 cells; test: Mitochondrial membrane potential analysis with JC-1 dye; assay type: cell-based, human; conditions: dose dependent
Protocol: After having determined the role of the targeting VIP peptide and the cathepsin cleavable linker we investigated the role of the apoptotic BID peptide. In this regard, we monitored the mitochondrial membrane potential of the cells on treatment with fusion protein using JC-1 dye.
Aliquots of cell suspensions were incubated with 4 μM of JC-1, a specific MMP dependent fluorescence dye [Hortelano S. et al., FEBS Lett, 1997, 411: 77-82], for 30 min at 37° C. and washed once in PBS. Mitochondrial depolarization was qualitatively estimated by fluorescence microscopy with a long-pass filter. […] JC-1 forms aggregates in cells with a high red fluorescence (585 nm) indicating a normal MMP. MMP loss results in a reduction in red fluorescence with a concurrent gain in green fluorescence (530 nm) as the dye shifts from aggregates to monomeric state. Therefore, retention of the dye in the cells can be monitored through the increase in green fluorescence. The fluorescence was measures using Varioskan spectrofluorimeter (Thermo Electron Corporation, Waltham, Mass. USA) and the data was converted to density plots.

T2 sequence (P07339 65-412): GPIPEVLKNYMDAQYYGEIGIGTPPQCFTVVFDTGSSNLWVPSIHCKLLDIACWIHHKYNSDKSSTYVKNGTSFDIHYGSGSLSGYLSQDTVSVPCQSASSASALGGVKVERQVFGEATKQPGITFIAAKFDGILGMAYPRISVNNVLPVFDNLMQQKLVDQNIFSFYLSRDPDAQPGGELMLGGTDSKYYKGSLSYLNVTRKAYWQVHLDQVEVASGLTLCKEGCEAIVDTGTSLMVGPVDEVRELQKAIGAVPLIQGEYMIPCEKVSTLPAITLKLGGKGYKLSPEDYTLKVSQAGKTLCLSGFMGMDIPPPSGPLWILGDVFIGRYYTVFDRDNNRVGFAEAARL

B1: fusion protein: 71 amino acid recombinant polypeptide: VIP, cathepsin cleavable linker SLLIARRMPNFN, BH3 domain of BID, His tag (SEQ ID NO: 10) (protein)
chain: MHSDAVFTDNYTRLRKQMAVKKYLNSILNGSSLLIARRMPNFNEDIIRNIARHLAQVGDSMDRLEHHHHHH
modifications: This amino acid sequence was artificially generated using naturally occurring mature human VIP peptide produced in E.coli as fusion protein
- IC50 [1]: > 30 µM
- availability of VPAC-1 receptors to anti VPAC-1 after pre-treatment ([2]; A549 cells pre-treated, then anti-VPAC-1 immunostaining): significant loss in the immunostained cell population
- immunostaining with anti-BID after treatment of cells ([2]; A549 cells treated with fusion protein, anti-BID): localization of the protein on the cells
- time of first cleavage at the linker [3]: around 30 minutes
- effect on mitochondrial membrane potential [4]: decreasing the mitochondrial membrane potential
